{"source": "paper PMC4824100", "key": {"FKBP25 (FKBP3) wild type": {"molecular_target": "T1, FKBP25 (FKBP3) wild type (Homo sapiens, UniProt Q00688 1-224)", "T1 sequence": "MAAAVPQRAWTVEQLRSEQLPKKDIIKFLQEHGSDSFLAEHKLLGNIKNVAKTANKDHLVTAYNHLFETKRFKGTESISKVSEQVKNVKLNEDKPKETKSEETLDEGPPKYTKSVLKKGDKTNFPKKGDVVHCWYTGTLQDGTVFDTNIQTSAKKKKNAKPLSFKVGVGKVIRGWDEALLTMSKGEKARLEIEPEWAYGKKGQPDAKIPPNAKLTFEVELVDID", "assay": "NMR PRE"}, "YY1-DBD": {"molecular_target": "YY1-DBD (UniProt P25490 286-414)", "sequence (P25490 286-414)": "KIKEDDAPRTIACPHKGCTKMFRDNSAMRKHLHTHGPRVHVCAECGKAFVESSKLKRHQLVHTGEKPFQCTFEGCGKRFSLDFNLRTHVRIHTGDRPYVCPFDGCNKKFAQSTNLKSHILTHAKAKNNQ", "assay": "ITC"}}, "data": [{"binder": "DNA-1 (dT-EDTA at position 5) (dsDNA, dT-EDTA at T5 of strand 1 (Mn2+ or Ca2+ chelated)) DNA 1: AGGGTCTCCATTTTGAAGCATGC DNA 2: GCATGCTTCAAAATGGAGACCCT", "values": [{"measurement": "binding result", "setting": "FKBP25 (FKBP3) wild type", "result": "binds"}]}, {"binder": "DNAYY1 23-bp (dsDNA) DNA 1: AGGGTCTCCATTTTGAAGCATGC DNA 2: GCATGCTTCAAAATGGAGACCCT", "values": [{"measurement": "Kd", "setting": "YY1-DBD", "result": "390 ± 600", "unit": "nM"}]}, {"binder": "DNA-2 (dT-EDTA at position 27) (dsDNA, dT-EDTA at residue 27 (T4 of strand 2; numbering 24-46 on antisense)) DNA 1: AGGGTCTCCATTTTGAAGCATGC DNA 2: GCATGCTTCAAAATGGAGACCCT", "values": [{"measurement": "binding result", "setting": "FKBP25 (FKBP3) wild type", "result": "binds"}]}]}
